The values below come from patent publication US10006080B2, “High-selectivity contact activation inhibitor based on infestin-4” (OBSCHESTVO S OGRANICHENNOY OTVETSTVENNOSTYU …, priority 2013, dated 2018).

The test system of assay [1] is hypercoagulant PFP. In words: Thrombodynamics analyzer T-2, clots far from the activator in hypercoagulant PFP (100 pM fXIa added). The assay is classed as biochemical, human. The following applies: MutB 20 μM, CTI 15 μM; for time of appearance of clots far from the activator after activation: hypercoagulant PFP, nearly 5-8 minutes without inhibitor. The protocol: To assess the influence of the said contact activation inhibitors on appearance, far from the activator, of clots provoked by hypercoagulation, but not by contact activation of the sample by the cuvette walls, we added MutB (20 μM) and CTI (15 μM) into 2 separate samples of hypercoagulant PFP. Hypercoagulant PFP was obtained from normal frozen-thawed PFP by adding 100 pM of fXIa.
The influence of a polypeptide consisting of the sequence of an infestin-4 mutant MutB on the growth of fibrin clots in the samples of hypocoagulant, normal, and hypercoagulant blood plasma was studied using the laboratory diagnostic system «Thrombodynamics analyzer T-2» and the «Diagnostic kit for thrombodynamics investigation in blood plasma» (HemaCore, Moscow, Russia) according to the manual to the «Diagnostic kit for thrombodynamics investigation in blood plasma» (HemaCore, Moscow, Russia). Here, the said polypeptide was preliminarily proteolytically cleaved and chromatographically purified from thioredoxin (Trx). 15 minutes before the assay, the measuring cuvette, insert-activator with immobilized TF, and the reagents were held at 37° C. Standard investigation temperature was of 37° C. 15 minutes before the assay, 120 microliters of plasma were mixed with the investigated substances, MutB or CTI, for comparison, and put into a microtube. After mixing of the plasma with the substances, the tube with the plasma was put into a thermostat at 37° C. for 15 minutes. Immediately before the assay, the plasma was re-calcified: 120 microliters of the mixture of plasma and substances were put into a microtube with Reagent II (lyophilized solution of calcium acetate with an additive), and mixed up to complete Reagent II dilution. Then, 120 microliters of the mixture with Reagent II from the microtube was immediately transferred into the measuring cuvette. After that, the insert-activator was carefully inserted into the cuvette so that the surface with immobilized tissue factor would contact the plasma. Immediately after the contact of the coagulation activator with the blood plasma, the photography of the process of fibrin clot growth in plasma within the cuvette started. The cuvette-activator was a plate with the coagulation activator—tissue factor—immobilized at the low end surface (Fadeeva et al. 2010, Biochemistry (Moscow) 75:827-838). The automatic calculation of the assay results was performed using the software (user manual «Software for the laboratory diagnostic system «Thrombodynamics analyzer T-2», HemaCore, Moscow, Russia).

For assay [2], the system named is whole blood. As to the kind of experiment: Spontaneous clotting time of whole blood collected without calcium chelator. Also noted: species or system human. The following applies: MutB 10 μM, CTI 5 μM; 22° C., no calcium chelator; 3 healthy donors. The protocol: We used concentrations of contact activation inhibitors leading to 2.5-fold increase of APTT in normal plasma. Untreated whole blood was collected from 3 healthy donors without adding any anticoagulant, for example, citrate, except for the said contact activation inhibitors. The blood was mixed with the said inhibitors at 22° C. using a rotator, after which the time of clot formation in the blood was measured.
Blood was collected from the median cubital vein of the left hand into a sterile syringe Master UN PE, volume 10 ml, needle 21 G×1½″; 0.8×40 mm (FarmLine, USA). Calcium chelator or other anticoagulants, except contact activation inhibitors MutB or CTI, were not added into plasma. […] The collected blood was poured into a 15 ml tube, mixed by inverting it twice, after which 0.7 ml portions of blood were poured into 1.5 ml polypropylene microcentrifuge tubes MaxyClear Snaplock (Axygen, USA); immediately after, time record using a stopwatch started. Preliminarily, 78 microliters of MutB solution at 100 μM concentration, CTI solution at 50 μM concentration, or buffer solution of 30 mM Hepes pH 7.4 were added into the said tubes. The tubes containing the mixture of whole blood with the said solutions were fixed in the rotator and mixed by inverting them at the rotation speed of 10 rpm. The time of appearance of clots or fibrin filaments in the whole blood during mixing was fixed.

The target in assay [3] is T1, factor XIIa (UniProt P00748 20-615, limits assumed).
T1 construct: also called fXIIa
T1 sequence (looked up): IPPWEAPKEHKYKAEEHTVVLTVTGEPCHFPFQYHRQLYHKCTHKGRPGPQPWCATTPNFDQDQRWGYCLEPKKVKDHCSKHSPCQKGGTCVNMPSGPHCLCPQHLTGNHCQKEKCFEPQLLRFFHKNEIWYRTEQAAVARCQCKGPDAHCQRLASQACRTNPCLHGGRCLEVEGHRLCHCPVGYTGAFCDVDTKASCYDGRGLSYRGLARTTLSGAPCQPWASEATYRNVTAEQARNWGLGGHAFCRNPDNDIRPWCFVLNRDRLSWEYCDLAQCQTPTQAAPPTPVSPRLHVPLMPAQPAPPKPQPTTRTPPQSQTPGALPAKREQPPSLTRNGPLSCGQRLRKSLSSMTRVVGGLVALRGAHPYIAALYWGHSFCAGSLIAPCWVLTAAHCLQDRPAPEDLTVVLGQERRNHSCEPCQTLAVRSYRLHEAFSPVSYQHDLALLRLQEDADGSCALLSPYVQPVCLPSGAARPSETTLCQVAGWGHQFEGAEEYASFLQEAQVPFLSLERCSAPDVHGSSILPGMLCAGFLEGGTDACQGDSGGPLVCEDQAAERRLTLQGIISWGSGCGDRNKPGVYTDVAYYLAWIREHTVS
As to the kind of experiment: chromogenic test (S-2302), IC50 converted by Cheng-Prusoff. On the procedure: To determine the inhibition activity of such proteins as MutB, CTI, Inf4, Mut15, and LCTI-III as related to different coagulation proteases in a buffer, the chromogenic test was used: the mixture of protease and inhibitor was incubated in the wells of the plate for 15 minutes at 37° C., after which the chromogenic substrate solution was added to the mixture, and the protease activity was measured as the rate of chromogenic product formation at 37° C.
Chromogenic substrates included a p-nitroanilide group cleaved by the corresponding proteases. After cleavage of the p-nitroanilide group from the substrate molecule, the group absorption spectrum changes, and the change of concentration of such product within time can be detected at the light wavelength of 405 nm using a plate spectrophotometer. To build a dependence curve of the protease activity from the inhibitor concentration, different inhibitor concentrations were added into several samples with the same protease concentration. After that, the inhibitor concentration able to decrease the protease activity by 50% (IC50) was determined. The inhibition constant Ki was calculated using the Cheng-Prusoff equation (Ki=IC50/(1+S/KM)), where S is the initial substrate concentration, KM is the Michaelis-Menten constant of the substrate to the protease.

For the molecule “MutB: polypeptide comprising the sequence of infestin-4 mutant MutB (SEQ ID NO: 1), inhibition loop TRNFVA; high-selectivity fXIIa inhibitor (EVRNPCACTRNFVAVCGSDGKTYGNPCMLNCAAQTKVPGLKLVHEGRCQRSNVEQF; Infestin-4 mutant MutB)”, in assay [1], the “influence on appearance of clots far from the activator in hypercoagulant plasma” value is “does not influence appearance of clots far from the activator” and the “time of appearance of clots far from the activator after activation” value is 5 to 8 min. Besides, the “increase of the whole blood storage time in the tube (clotting time)” value in assay [2] is “two to three-fold”.

B1: corn trypsin inhibitor (other, UniProt P01088 29-138, looked up)
chain: SAGTSCVPGWAIPHNPLPSCRWYVTSRTCGIGPRLPWPELKRRCCRELADIPAYCRCTALSILMDGAIPPGPDAQLEGRLEDLPGCPREVQRGFAATLVTEAECNLATIS
notes: Isolated from corn; also called CTI
A word on the Ki: it is a measure of affinity in units of concentration, obtained from inhibition or displacement. Lower therefore signals a stronger hold on the target. For B1, in assay [1], the “influence on appearance of clots far from the activator in hypercoagulant plasma” value is given as “delays appearance of clots far from the activator” and the “time of appearance of clots far from the activator after activation” value fell in the range of 10 to 15 min. For the same molecule, the “increase of the whole blood storage time in the tube (clotting time)” value in assay [2] is listed as “two to three-fold”. The molecule further displayed a Ki in assay [3] of 1 nM.
